From the supplement of paper PMC10899765

Tests used:
Conditions in all cases: 20 nM; 72 h
[1] = system: MCF10A; assay: percent viability (nuclei count relative to siNT); higher = more viable cells
Method: (§1)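 After 72 h, cells were fixed and stained with Hoechst and anti-fibrillarin, and nucleoli per nucleus were counted with CellProfiler. Values are plate-adjusted percent effect for the one-nucleolus and 5+ nucleoli phenotypes, normalised to siNT (0%) and to the positive controls siNOL11 or siKIF11 (100%), as the mean of biological triplicates. Percent viability is the nuclei count relative to siNT.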

[2] = system: MCF10A; assay: 5+ nucleoli phenotype percent effect (relative to siNT 0% and siKIF11 100%); higher = more cells with five or more nucleoli
Method: as §1

[3] = system: MCF10A; assay: one-nucleolus phenotype percent effect (relative to siNT 0% and siNOL11 100%); higher = more cells with one nucleolus (ribosome biogenesis inhibition)
Method: as §1

| Sequence | percent viability [1] | 5+ nucleoli phenotype percent effect [2] | one-nucleolus phenotype percent effect [3] |
| --- | --- | --- | --- |
| CUAAUAGUAUCUACCACAAUAAA [hsa-miR-633] | 107% | 35.1% | -23.4% |
| CUACAAAGGGAAGCACUUUCUC [hsa-miR-524-5p] | 41.4% | -38.7% | 17.4% |
| CUACAAAGGGAAGCCCUUUC [hsa-miR-520d-5p] | 39.7% | -47.9% | 28.4% |
| CUACAGGCUGGAAUGGGCUCA [hsa-miR-7151-3p] | 20.6% | 2.37% | 13.6% |
| CUACCCCCCAUCCCCCUGUAG [hsa-miR-6798-3p] | 72.5% | -13.9% | -5.24% |
| CUACCCUCGGUCUGCUUACCACA [hsa-miR-7848-3p] | 41.7% | -35.7% | 25.5% |
| CUACUUCUACCUGUGUUAUCAU [hsa-miR-3682-5p] | 25.2% | -33% | 19.8% |
| CUAGACUGAAGCUCCUUGAGG [hsa-miR-151a-3p] | 66.5% | -6.07% | -1.52% |
| CUAGCACACAGAUACGCCCAGA [hsa-miR-585-5p] | 36.5% | -45.7% | 46% |
| CUAGGAGGCCUUGGCC [hsa-miR-4266] | 52.6% | -14.2% | 7.31% |
| CUAGGUAUGGUCCCAGGGAUCC [hsa-miR-331-5p] | 111% | 19% | -17.6% |
| CUAGGUGGGGGGCUUGAAGC [hsa-miR-6802-5p] | 33.9% | -17% | 9.83% |
| CUAGUGAGGGACAGAACCAGGAUUC [hsa-miR-921] | 48.8% | -15.6% | 31.9% |
| CUAGUGCUCUCCGUUACAAGUA [hsa-miR-4473] | 37.8% | 18% | -11.7% |
| CUAUACAACCUACUGCCUUCCC [hsa-let-7b-3p] | 32.4% | -18.8% | 10.1% |
| CUAUACAACUUACUACUUUCCC [hsa-miR-98-3p] | 59.1% | 45.5% | -31.6% |
| CUAUACAAUCUACUGUCUUUC [hsa-let-7a-3p] | 93.9% | 10.6% | -10.4% |
| CUAUACAAUCUAUUGCCUUCCC [hsa-let-7f-1-3p] | 39.2% | -25% | -6.49% |
| CUAUACAGUCUACUGUCUUUCC [hsa-let-7f-2-3p] | 70.8% | 4.65% | -3.58% |
| CUAUACGACCUGCUGCCUUUCU [hsa-let-7d-3p] | 84.7% | 18.1% | -15.3% |
| CUAUACGGCCUCCUAGCUUUCC [hsa-let-7e-3p] | 45% | 7.57% | -18.7% |
| CUAUAUAUCAAACAUAUUCCU [hsa-miR-190a-3p] | 67.4% | 35.7% | -19.5% |
| CUAUGGCGAGACUGGCAUGUACUC [hsa-miR-8074] | 110% | 26.4% | -12.8% |
| CUAUUAAGGACAUUUGUGAUUC [hsa-miR-4477a] | 32.6% | -13.7% | -0.508% |

| Sequence | percent viability [1] | 5+ nucleoli phenotype percent effect [2] | one-nucleolus phenotype percent effect [3] |
| --- | --- | --- | --- |
| CUCAAACCGGCUGUGCCUGUGG [hsa-miR-6715b-3p] | 62.7% | -11.8% | 10% |
| CUCAAGUAGUCUGACCAGGGGA [hsa-miR-4465] | 67% | 21.6% | -5.88% |
| CUCACUCUCAGUCCCUCCCU [hsa-miR-6794-3p] | 88.6% | 27.6% | -18.1% |
| CUCACUGAACAAUGAAUGCAA [hsa-miR-181b-3p] | 61.5% | 22% | -19.6% |
| CUCACUGAUCAAUGAAUGCA [hsa-miR-181b-2-3p] | 144% | 9.62% | -19.1% |
| CUCAGUAGCCAGUGUAGAUCCU [hsa-miR-222-5p] | 57.4% | -14.7% | 14% |
| CUCAGUGACUCAUGUGC [hsa-miR-4276] | 72.6% | -21.3% | 17.5% |
| CUCAUCUGCAAAGAAGUAAGUG [hsa-miR-452-3p] | 21.6% | -40.5% | 48.1% |
| CUCAUUUAAGUAGUCUGAUGCC [hsa-miR-5696] | 125% | -2.38% | -11.5% |
| CUCCAGAGGGAAGUACUUUCU [hsa-miR-520a-5p] | 34.6% | -28.3% | 23.8% |
| CUCCAGAGGGAUGCACUUUCU [hsa-miR-525-5p] | 36.5% | -22.1% | 20.6% |
| CUCCCACAUGCAGGGUUUGCA [hsa-miR-188-3p] | 57.7% | 25% | -6.75% |
| CUCCCACUUCCAGAUCUUUCU [hsa-miR-3156-3p] | 34.1% | 12% | -4.85% |
| CUCCCCGGCCUCUGCCCCCAG [hsa-miR-6763-3p] | 96.4% | 39.1% | -28.1% |
| CUCCCCUCUCUUUCCUGUUCAG [hsa-miR-6826-3p] | 52.3% | -9.68% | 0.6% |
| CUCCGGGACGGCUGGGC [hsa-miR-4497] | 67.6% | 0.934% | -8.42% |
| CUCCGUUUGCCUGUUUCGCUG [hsa-miR-1468] | 112% | 30.4% | -8.9% |
| CUCCUACAUAUUAGCAUUAACA [hsa-miR-155-3p] | 119% | 6.71% | -5.11% |
| CUCCUAUAUGAUGCCUUUCUUC [hsa-miR-337-3p] | 52% | 2.51% | -11% |
| CUCCUCCACAGCCCCUGCUCAU [hsa-miR-6792-3p] | 56.4% | -21.5% | -4.72% |
| CUCCUCCCCUGCCUGGCCCAG [hsa-miR-6749-3p] | 48.8% | 0.0227% | -2.87% |
| CUCCUCUGUUUUCUUUCCUAG [hsa-miR-6780a-3p] | 34.4% | -34.9% | 25.3% |
| CUCCUGACUCCAGGUCCUGUGU [hsa-miR-378a-5p] | 25.2% | -8.66% | 10.6% |
| CUCCUGAGCCAUUCUGAGCCUC [hsa-miR-1200] | 58% | -30.8% | 27.4% |
